In publication PMC4609964, “Combination of six enzymes of a marine Novosphingobium converts the stereoisomers of β-O-4 lignin model dimers into the respective monomers” (Scientific Reports, 2015):

Assays:
GST3 [1] = target: T1, GST3 (Novosphingobium sp. MBES04, UniProt A0A0S6WZT0); assay: conventional GST assay (specific activity); assay type: biochemical; conditions: glutathione co-substrate
T1 construct: gene MBENS4_2527; N-terminal His6 tag (pRSET A), E. coli BL21(DE3), His-tag resin purified
T1 sequence (A0A0S6WZT0 1-226): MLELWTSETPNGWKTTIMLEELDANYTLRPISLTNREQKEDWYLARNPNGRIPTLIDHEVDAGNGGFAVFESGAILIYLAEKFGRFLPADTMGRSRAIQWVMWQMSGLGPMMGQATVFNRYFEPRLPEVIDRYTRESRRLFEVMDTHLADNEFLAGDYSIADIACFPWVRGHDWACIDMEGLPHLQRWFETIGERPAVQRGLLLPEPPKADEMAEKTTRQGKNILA

GST3 [2] = target: T1, GST3; assay: chiral HPLC of glutathione removal to GHP; assay type: biochemical; conditions: glutathione 2.0 mM; 25 °C, 16 h; both conjugates (formed by GST4 and by GST5)
GST6 = target: T2, GST6 (Novosphingobium sp. MBES04, UniProt A0A0S6WVQ1); assay: chiral HPLC of glutathione removal to GHP; assay type: biochemical; conditions: […] °C, […] h, both conjugates (formed by GST4 and by GST5)
T2 construct: gene MBENS4_2530; N-terminal His6 tag (pRSET A), E. coli BL21(DE3), His-tag resin purified
T2 sequence (A0A0S6WVQ1 1-283): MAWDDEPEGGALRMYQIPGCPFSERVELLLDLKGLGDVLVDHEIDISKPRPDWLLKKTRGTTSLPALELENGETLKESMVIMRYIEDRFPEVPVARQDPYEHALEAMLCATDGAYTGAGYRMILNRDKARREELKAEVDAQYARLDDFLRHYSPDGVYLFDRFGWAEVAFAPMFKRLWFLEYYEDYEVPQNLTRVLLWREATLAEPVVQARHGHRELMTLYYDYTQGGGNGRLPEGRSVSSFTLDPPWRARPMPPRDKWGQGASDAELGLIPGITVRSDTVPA

[3] = test system: COc1ccc(C(=O)C(CO)Oc2ccccc2OC)cc1OC; assay: purified protein; conditions: GSH co-substrate, optimal pH 7−8, 40 °C (determined with MPHPV)
[4] = test system: COc1cc(C(=O)C(CO)Oc2ccccc2OC)ccc1O; assay: purified protein; conditions: GSH co-substrate, optimal pH 7−8, 40 °C, 1:1 β(R)/β(S) mixture (acts on β(R))
[5] = test system: COc1ccc(C(O)C(CO)Oc2ccccc2OC)cc1OC; assay: purified protein; conditions: NAD cofactor
purified protein [6] = substrate: COc1cc(C(=O)C(CO)Oc2ccccc2OC)ccc1O; assay: purified protein; assay type: biochemical, Novosphingobium sp. MBES04; conditions: GSH co-substrate, optimal pH 9, 35 °C, 1:1 β(R)/β(S) mixture (acts on β(S))
purified protein [7] = substrate: COc1ccc(C(=O)C(CO)Oc2ccccc2OC)cc1OC; assay: purified protein; assay type: biochemical, Novosphingobium sp. MBES04; conditions: GSH co-substrate, optimal pH 9, 35 °C (determined with MPHPV)
[8] = optimal conditions (pH 9, 15 °C)
[9] = optimal conditions (pH 9–10, 30 °C)

`O=[N+]([O-])c1ccc(Cl)c([N+](=O)[O-])c1` [CDNB] was tested, and the “conventional GST assay (specific activity)” value (GST3 [1]) was “the activity of GST3 towards 1-chloro-2,4-dinitrobenzene (CDNB)”.

With `COc1cc(C(=O)C(CO)SC[C@H](NC(=O)CC[C@H](N)C(=O)O)C(=O)NCC(=O)O)ccc1O` (stereo partly drawn) [GS-GHP] the “chiral HPLC of glutathione removal to GHP” value (GST3 [2]) was “the removal of glutathione from both glutathione conjugates of GHP produced by GST4 and GST5” and the “chiral HPLC of glutathione removal to GHP” value (GST6) was “the removal of glutathione from both glutathione conjugates of GHP produced by GST4 and GST5”.

GST5 (Novosphingobium sp. MBES04) gave a Km [3] of 780 µM, a kcat [3] of 0.158 s⁻¹ and a kcat/Km [3] of 200 M⁻¹ s⁻¹. The Km [4] was 290 µM, the kcat [4] was 0.0583 s⁻¹ and the kcat/Km [4] was 200 M⁻¹ s⁻¹.

SDR3 (Novosphingobium sp. MBES04) showed a Km [5, 8] of 1500 µM, a kcat [5, 8] of 0.065 s⁻¹ and a kcat/Km [5, 8] of 41.7 M⁻¹ s⁻¹.

SDR5 (Novosphingobium sp. MBES04) gave a Km [5, 9] of 1100 µM, a kcat [5, 9] of 23.3 s⁻¹ and a kcat/Km [5, 9] of 21700 M⁻¹ s⁻¹.

B1: GST4 (Novosphingobium sp. MBES04) (protein)
chain: MLTLYSFGPGANSLKPLLALYEKGLEFTPRFVDPTKFEHHEEWFKKINPRGQVPALDHDGNVITESTVICEYLEDAFPDAPRLRPTDPVQIAEMRVWTKWVDEYFCWCVSTIGWERGIGPMARALSDEEFEEKVKRIPIPEQQAKWRSARAGFPKEVLDEEMRKIRVSIDRLEKRLSESTWLAGEDYTLADICNFAIANGMEKGFDDIVNTAATPNLVAWIERINARPACIEMFAKSKSEFAARKPFAKSEEQAQA
notes: N-terminal His6 tag (pRSET A), E. coli BL21(DE3), His-tag resin purified
Work on B1 yielded a Km (purified protein [6]) of 470 µM, a kcat (purified protein [6]) of 0.75 s⁻¹ and a kcat/Km (purified protein [6]) of 1580 M⁻¹ s⁻¹. The Km (purified protein [7]) was 550 µM, the kcat (purified protein [7]) was 0.3 s⁻¹ and the kcat/Km (purified protein [7]) was 533 M⁻¹ s⁻¹.
